The supplement of paper PMC7877785
± gives the uncertainty stated by the source.

Experiment: self-splicing fitness, log relative to wild type (ln ratio); higher = more splicing; Tetrahymena group I intron in knt gene, E. coli kanamycin selection, DiMSum; sequences stand for … in CUCUCU…GGAGGGAAAAGUUAUCAGGCAUGCACCUGGUAGCUAGUCUUUAAACCAAUAGAUUGCAUCGGUUUAAAAGGCAAGACCGUCAAAUUGCGGGAAAGGGGUCAACAGCCGUUCAGUACCAAGUCUCAGGGGAAACUUUGAGAUGGCCUUGCAAAGGGUAUGGUAAUAAGCUGACGGACAUGGUCCUAACCACGCAGCCAAGUCCUAAGUCAACAGAUCUUCUGUUGAUAUGGAUGCAGUUCACAGACUAAAUGUCGGUCGGGGAAGAUGUAUUCUUCUCAUAAGAUAUAGUCGGACCUCUCCUUAAUGGGAGCUAGCGGAUGAAGUGAUGCAACACUGGAGCCGCUGGGAACUAAUUUGUAUGCGAAAGUAUAUUGAUUAGUUUUGGAGUACUCGUGGUCG
Method in brief: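 The eight P1ex-region nucleotides of an intron in the knt kanamycin-resistance gene on pET-22b(+) were all randomised and the library put into E. coli BL21(DE3). Six replicate transformations were grown overnight at 37°C or 30°C on LB agar with or without 25 μg/mL kanamycin, together with 100 μg/mL carbenicillin, 50 μM IPTG and 0.2% rhamnose. Colonies were pooled and amplicon-sequenced on an Illumina HiSeq 2500. Fitness from DiMSum is the error-weighted combination of wild-type-normalised replicate fold changes, kanamycin over none.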

| Sequence | self-splicing fitness (ln) (30 °C) | self-splicing fitness (ln) (37 °C) |
| --- | --- | --- |
| UCCCAGCAAUAUUACGAAUU | -3.04 ± 0.19 | -2.27 ± 0.17 |
| UCCCAGCAAUAUUACGACAA | -2.16 ± 0.15 | -1.37 ± 0.14 |
| UCCCAGCAAUAUUACGAGCA | -0.711 ± 0.1 | 0.0665 ± 0.13 |
| UCCCAGCAAUAUUACGAGGA | -2.18 ± 0.11 | -1.36 ± 0.12 |
| UCCCAGCAAUAUUACGAUCU | -3.77 ± 0.23 | -1.95 ± 0.24 |
| UCCCAGCAAUAUUACGCACG | -3.4 ± 0.17 | -2.6 ± 0.23 |
| UCCCAGCAAUAUUACGCGUA | -0.178 ± 0.066 | 0.0254 ± 0.079 |
| UCCCAGCAAUAUUACGGACA | -1.63 ± 0.092 | -0.126 ± 0.081 |
| UCCCAGCAAUAUUACGGGAU | -3.59 ± 0.14 | -3.46 ± 0.21 |
| UCCCAGCAAUAUUACGGGUA | -0.837 ± 0.065 | -0.432 ± 0.071 |
| UCCCAGCAAUAUUACGGGUC | -3.67 ± 0.16 | -3.35 ± 0.22 |
| UCCCAGCAAUAUUACGGUCG | -1.76 ± 0.071 | -0.748 ± 0.078 |
| UCCCAGCAAUAUUACGGUGC | -2.41 ± 0.13 | -1.51 ± 0.13 |
| UCCCAGCAAUAUUACGUAGG | -4.06 ± 0.17 | -1.08 ± 0.11 |
| UCCCAGCAAUAUUACGUCAC | -4.1 ± 0.33 | -3.23 ± 0.33 |
| UCCCAGCAAUAUUACGUCCU | -3.36 ± 0.18 | -1.48 ± 0.15 |
| UCCCAGCAAUAUUACGUCGA | -0.251 ± 0.071 | 0.317 ± 0.099 |
| UCCCAGCAAUAUUACGUCGC | -3.47 ± 0.27 | -2.4 ± 0.22 |
| UCCCAGCAAUAUUACGUUUU | -3.06 ± 0.11 | -1.81 ± 0.15 |
| UCCGAGCAAUAUUACGAACG | -1.82 ± 0.37 | -1.06 ± 0.22 |
| UCCGAGCAAUAUUACGAAGC | – | -1.15 ± 0.36 |
| UCCGAGCAAUAUUACGAAGU | – | -1.4 ± 0.29 |

| Sequence | self-splicing fitness (ln) (30 °C) | self-splicing fitness (ln) (37 °C) |
| --- | --- | --- |
| UCCGAGCAAUAUUACGACGA | -0.666 ± 0.086 | 0.401 ± 0.11 |
| UCCGAGCAAUAUUACGAGCA | -1.02 ± 0.1 | -0.767 ± 0.097 |
| UCCGAGCAAUAUUACGAGCG | -3.16 ± 0.18 | -2.47 ± 0.24 |
| UCCGAGCAAUAUUACGAUCU | -3.46 ± 0.35 | -2.61 ± 0.39 |
| UCCGAGCAAUAUUACGCGAA | -2.94 ± 0.4 | -1.84 ± 0.4 |
| UCCGAGCAAUAUUACGCGCG | -2.28 ± 0.15 | -3.28 ± 0.43 |
| UCCGAGCAAUAUUACGCUUA | -2.39 ± 0.41 | -2.47 ± 0.39 |
| UCCGAGCAAUAUUACGGAUU | -3.52 ± 0.29 | -2.45 ± 0.26 |
| UCCGAGCAAUAUUACGGUCA | -0.946 ± 0.067 | -0.671 ± 0.057 |
| UCCGAGCAAUAUUACGGUCG | -3.68 ± 0.47 | -2 ± 0.45 |
| UCCGAGCAAUAUUACGUAAU | -4.41 ± 0.28 | -1.88 ± 0.18 |
| UCCGAGCAAUAUUACGUAGG | -2.69 ± 0.16 | -2 ± 0.25 |
| UCCGAGCAAUAUUACGUAUG | -2.36 ± 0.17 | -2.67 ± 0.24 |
| UCCGAGCAAUAUUACGUCGG | -2.97 ± 0.44 | -1.86 ± 0.35 |
| UCCGAGCAAUAUUACGUCGU | -2.21 ± 0.16 | -1.53 ± 0.18 |
| UCCGAGCAAUAUUACGUGAU | -4.03 ± 0.4 | -1.91 ± 0.41 |
| UCCGAGCAAUAUUACGUGGC | -3.27 ± 0.24 | -2.52 ± 0.33 |
| UCCGAGCAAUAUUACGUUUU | -3.83 ± 0.25 | -0.687 ± 0.15 |
| UCCUAGCAAUAUUACGAAAA | -2.7 ± 0.43 | – |
| UCCUAGCAAUAUUACGAUUA | – | -3.41 ± 0.46 |
| UCCUAGCAAUAUUACGCACC | -2.95 ± 0.32 | -1.62 ± 0.25 |
